The target in test [1] is T1, human α5β1 integrin (human, UniProt P08648 42-1049; P05556 21-798). Briefly: FACS titration on α5β1-positive HUVEC cells, monovalent Fab.
Test [2] has as its target T1, human α5β1 integrin. As to the kind of experiment: FACS titration on α5β1-positive HUVEC cells, IgG.
Test [3] addresses T1, human α5β1 integrin. Briefly: cell-based or functional assay.
Test [4] concerns the target T2, β1-integrin chain on HT29 wt cells (α5-chain negative) (human, UniProt P05556 21-798).
T2 construct: whole, on cells; Negative cell control: β1 present at high density, α5 absent
As to the kind of experiment: immunoprecipitation from NP40 lysate of surface-biotinylated HT29 wt cells; streptavidin-AP blot. How it is done:
Surface-biotinylated NP40-lysates of HT29α5 and HT29 wt were incubated with Fab coupled to magnetic Dyna beads. The immunoprecipitates were transferred to PVDF-membranes and analysed with streptavidin alkaline phosphatase (AP).
IIA1 was used as a reference antibody. After intensive washing the precipitates were boiled in SDS-PAGE sample buffer under reducing conditions, blotted to PVDF-membranes and probed with streptavidine-AP. All anti-α5β1 integrin antibodies specifically precipitated a protein double kband of […] which corresponds to the expected molecular weight of the integrin chains α5 and β1 (FIG. 11) and was not found in the HT29 wt cell lysate. The same double band was found with IIA1.

Test [5] deals with T1, human α5β1 integrin. As to the kind of experiment: cell-based or functional assay. The source holds these as a separate data set.
In test [6] the target is T2, β1-integrin chain on HT29 wt cells …. Briefly: FACS, HT29 cells (α5-chain negative). For orientation: Flow cytometry measures light scatter and fluorescence of single cells or particles in a stream.
Test [7] concerns the target T1, human α5β1 integrin. Briefly: cell-based or functional assay. This is another data set of the same source.

Values joined by “and” are separate entries in the source; they are usually repeats but may differ in a detail not shown here. Equal values may be shown once.

T1 sequence (P08648 42-1049, chain 1 of 2): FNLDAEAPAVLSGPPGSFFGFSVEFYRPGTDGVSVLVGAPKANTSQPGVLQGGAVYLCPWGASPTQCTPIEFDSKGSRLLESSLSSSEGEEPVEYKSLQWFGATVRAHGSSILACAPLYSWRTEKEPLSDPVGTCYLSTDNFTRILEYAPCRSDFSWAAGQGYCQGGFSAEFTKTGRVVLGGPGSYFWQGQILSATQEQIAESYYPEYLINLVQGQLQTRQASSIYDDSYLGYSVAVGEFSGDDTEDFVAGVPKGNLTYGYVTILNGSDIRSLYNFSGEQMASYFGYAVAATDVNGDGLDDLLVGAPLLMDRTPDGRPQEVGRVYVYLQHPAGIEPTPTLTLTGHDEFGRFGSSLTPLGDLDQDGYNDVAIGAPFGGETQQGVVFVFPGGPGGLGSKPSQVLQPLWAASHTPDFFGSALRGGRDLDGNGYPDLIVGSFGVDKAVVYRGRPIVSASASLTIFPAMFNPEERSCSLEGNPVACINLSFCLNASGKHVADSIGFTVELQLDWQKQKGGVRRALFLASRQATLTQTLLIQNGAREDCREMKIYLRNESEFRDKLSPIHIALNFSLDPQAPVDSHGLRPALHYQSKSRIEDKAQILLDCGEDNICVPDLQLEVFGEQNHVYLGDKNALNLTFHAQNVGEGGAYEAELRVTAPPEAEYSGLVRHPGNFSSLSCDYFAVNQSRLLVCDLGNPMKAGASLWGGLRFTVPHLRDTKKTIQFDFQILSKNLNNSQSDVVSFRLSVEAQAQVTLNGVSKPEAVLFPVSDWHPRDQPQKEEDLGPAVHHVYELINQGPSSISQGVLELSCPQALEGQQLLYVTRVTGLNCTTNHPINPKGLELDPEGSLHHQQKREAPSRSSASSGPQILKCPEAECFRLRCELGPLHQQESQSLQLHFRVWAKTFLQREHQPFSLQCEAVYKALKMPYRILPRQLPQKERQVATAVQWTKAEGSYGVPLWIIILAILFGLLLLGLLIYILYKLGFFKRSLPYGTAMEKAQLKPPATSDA
T1 sequence (P05556 21-798, chain 2 of 2): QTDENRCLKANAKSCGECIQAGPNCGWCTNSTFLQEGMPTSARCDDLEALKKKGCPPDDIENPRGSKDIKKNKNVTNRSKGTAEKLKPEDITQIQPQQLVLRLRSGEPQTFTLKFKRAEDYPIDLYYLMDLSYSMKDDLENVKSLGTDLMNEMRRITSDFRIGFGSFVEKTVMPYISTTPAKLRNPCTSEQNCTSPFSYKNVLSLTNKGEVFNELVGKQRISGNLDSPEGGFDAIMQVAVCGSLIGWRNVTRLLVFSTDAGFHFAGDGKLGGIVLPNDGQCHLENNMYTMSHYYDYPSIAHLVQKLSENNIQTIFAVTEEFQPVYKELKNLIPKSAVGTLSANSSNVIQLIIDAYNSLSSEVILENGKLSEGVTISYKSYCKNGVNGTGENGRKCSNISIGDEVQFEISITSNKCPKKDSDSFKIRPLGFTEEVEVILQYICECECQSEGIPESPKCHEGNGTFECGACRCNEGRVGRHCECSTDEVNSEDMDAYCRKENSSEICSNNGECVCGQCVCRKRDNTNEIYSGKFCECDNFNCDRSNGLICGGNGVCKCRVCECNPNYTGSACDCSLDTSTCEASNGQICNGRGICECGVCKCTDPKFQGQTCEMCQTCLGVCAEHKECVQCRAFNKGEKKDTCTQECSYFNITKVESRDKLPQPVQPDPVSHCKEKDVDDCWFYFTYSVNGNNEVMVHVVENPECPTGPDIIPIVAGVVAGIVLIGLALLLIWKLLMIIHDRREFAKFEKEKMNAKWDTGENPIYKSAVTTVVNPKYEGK
T2 sequence (P05556 21-798): as the sequence (P05556 21-798, chain 2 of 2) above

B1: MOR04055 Fab (Fab, V domains shown)
VH: QVQLVESGGGLVQPGGSLRLSCAASGFTFSNYAMNWVRQAPGKGLEWVSRISYSGSDTYYADSVKGRFTISRDNSKNTLYLQMNSLRAEDTAVYYCAREGEFGFMYSTLVFDSWGQGTLVTVSS
VL: DIELTQPPSVSVAPGQTARISCSGDSIGEQYAHWYQQKPGQAPVLVIYDDNKRPSGIPERFSGSNSGNTATLTISGTQAEDEADYYCGSYTLTNTASVFGGGTKLTVLG
With B1, the Kd (usually the concentration at which binding is half-saturated) in the test with human α5β1 integrin [1] turned out to be 0.9 nM.

B2: MOR04055 IgG (antibody, V domains shown)
VH: QVQLVESGGGLVQPGGSLRLSCAASGFTFSNYAMNWVRQAPGKGLEWVSRISYSGSDTYYADSVKGRFTISRDNSKNTLYLQMNSLRAEDTAVYYCAREGEFGFMYSTLVFDSWGQGTLVTVSS
VL: DIELTQPPSVSVAPGQTARISCSGDSIGEQYAHWYQQKPGQAPVLVIYDDNKRPSGIPERFSGSNSGNTATLTISGTQAEDEADYYCGSYTLTNTASVFGGGTKLTVLG
B2: the dissociation constant (Kd) with human α5β1 integrin [2] turned out to be 0.5 nM.

B3: MOR04971 Fab (Fab, V domains shown)
VH: QVQLVESGGGLVQPGGSLRLSCAASGFTFSNYAMNWVRQAPGKGLEWVSAIHDNGHTYYPDSVKGRFTISRDNSKNTLYLQMNSLRAEDTAVYYCAREGEFGFMYSTLVFDSWGQGTLVTVSS
VL: DIELTQPPSVSVAPGQTARISCSGDSIGEQYAHWYQQKPGQAPVLVIYDDNKRPSGIPERFSGSNSGNTATLTISGTQAEDEADYYCSSYTYSSDASVFGGGTKLTVLG
Regarding B3, in the test with human α5β1 integrin [3], the “IC50, XTT-proliferation assay on HUVEC” value was 0.21 µg/ml and 4.3 nM. In addition, in test [4], the binding result is recorded as “no binding”.

B4: MOR04624 Fab (Fab, V domains shown)
VH: QVQLVESGGGLVQPGGSLRLSCAASGFTFSSYGMSWVRQAPGKGLEWVSSISYSDSNTYYADSVKGRFTISRDNSKNTLYLQMNSLRAEDTAVYYCARGLGDYGHHHGLSGIFDYWGQGTLVTVSS
VL: DIQMTQSPSSLSASVGDRVTITCRASQGISSNLNWYQQKPGKAPKLLIYAASNLQSGPSRFSGSGSGTDFTLTISSLQPEDFAVYYCQQYSDQSYTFGQGTKVEIKR
notes: HuCAL GOLD monovalent Fab, kappa
As to B4, the “IC50, XTT-proliferation assay on HUVEC” value in the test with human α5β1 integrin [3] was 11.2 µg/ml and 225 nM. This molecule also had a Kd with human α5β1 integrin [1] of 7.5 nM.

B5: MOR04974 Fab (Fab, V domains shown)
VH: QVQLVESGGGLVQPGGSLRLSCAASGFTFSSYGMSWVRQAPGKGLEWVSGIRAKQSGYATDYAAPVKGRFTISRDNSKNTLYLQMNSLRAEDTAVYYCARGLGDYGHHHGLSGIFDYWGQGTLVTVSS
VL: DIQMTQSPSSLSASVGDRVTITCRASQGISSNLNWYQQKPGKAPKLLIYAASNLQSGPSRFSGSGSGTDFTLTISSLQPEDFATYYCQQYASPRQTFGQGTKVEIKR
As for B5, the “IC50, XTT-proliferation assay on HUVEC” value with human α5β1 integrin [3] was 0.06 µg/ml and 1.2 nM. For the same molecule, the binding result in test [4] is “no binding”.

B6: MOR04975 IgG4-Pro (antibody, V domains shown)
VH: QVQLVESGGGLVQPGGSLRLSCAASGFTFSSYGMSWVRQAPGKGLEWVSGIRAKQSGYATDYAAPVKGRFTISRDNSKNTLYLGMNSLRAEDTAVYYCARGLGDYGHHHGLSGIFDYWGQGTLVTVSS
VL: DIQMTQSPSSLSASVGDNVTITCRASQGISSNLNWYQQKPGKAPKLLIYAASNLQSGPSRFSGSGSGTDFTLTISSLQPEDFATYYCQQYEFGIQTFGQGTKVEIKR
On to B6, for which the “IC50, transwell migration of HUVEC towards fibronectin” value (shortened to “IC50, transwell migration”) with human α5β1 integrin [5] is 1.5 µg/mL.

B7: MOR04624 IgG1 (antibody, V domains shown)
VH: QVQLVESGGGLVQPGGSLRLSCAASGFTFSSYGMSWVRQAPGKGLEWVSSISYSDSNTYYADSVKGRFTISRDNSKNTLYLQMNSLRAEDTAVYYCARGLGDYGHHHGLSGIFDYWGQGTLVTVSS
VL: DIQMTQSPSSLSASVGDRVTITCRASQGISSNLNWYQQKPGKAPKLLIYAASNLQSGPSRFSGSGSGTDFTLTISSLQPEDFAVYYCQQYSDQSYTFGQGTKVEIKR
notes: Human IgG1 kappa (MorphoSys HuCAL IgG Vector Kit); also called IgG1 MOR04624
On to B7, for which the binding result in test [6] is “no binding”. The affinity with human α5β1 integrin [2], expressed as Kd, was 3.1 nM.

B8: MOR04977 IgG4-Pro (antibody, V domains shown)
VH: QVQLVESGGGLVQPGGSLRLSCAASGFTFSSYGMSWVRQAPGKGLEWVSFIEPKWRGGATHYAASVKGRFTISRDNSKNTLYLQMNSLRAEDTAVYYCARGLGDYGHHHGLSGIFDYWGQGTLVTVSS
VL: DIQMTQSPSSLSASVGDRVTITCRASQGISSNLNWYQQKPGKAPKLLIYAASNLQSGPSRFSGSGSGTDFTLTISSLQPEDFATYYCQQYSSNPQTFGQGTKVEIKR
On to B8, for which, in the test with human α5β1 integrin [5], the “IC50, transwell migration” value is 1 µg/mL.

B9: MOR04974 IgG4-Pro (antibody, V domains shown)
VH: QVQLVESGGGLVQPGGSLRLSCAASGFTFSSYGMSWVRQAPGKGLEWVSGIRAKQSGYATDYAAPVKGRFTISRDNSKNTLYLGMNSLRAEDTAVYYCARGLGDYGHHHGLSGIFDYWGQGTLVTVSS
VL: DIQMTGSPSSLSASVGDRVTITCRASQGISSNLNWYQQKPGKAPKLLIYAASNLQSGPSRFSGSGSGTDFTLTISSLQPEDFATYYCQQYASPRQTFGQGTKVEIKR
For the molecule B9, in the test with human α5β1 integrin [5], the “IC50, transwell migration” value was found to be 1 µg/mL.

B10: MOR04985 IgG1 (antibody, V domains shown)
VH: QVQLVESGGGLVQPGGSLRLSCAASGFTFSSYGMSWVRQAPGKGLEWVSGIRAKQSGYATDYAAPVKGRFTISRDNSKNTLYLQMNSLRAEDTAVYYCARGLGDYGHHHGLSGIFDYWGQGTLVTVSS
VL: DIQMTQSPSSLSASVGDRVTITCRASQGISSNLNWYQQKPGKAPKLLIYAASNLQSGPSRFSGSGSGTDFTLTISSLQPEDFAVYYCQQYSDQSYTFGQGTKVEIKR
In the case of B10, the “EC50, inhibition of HUVEC adhesion to fibronectin” value (“EC50, inhibition of HUVEC adhesion” for short) with human α5β1 integrin [7] is 0.5 µg/ml and 3.3 nM. In addition, in test [6], the binding result is “no binding”.

B11: MOR04985 Fab (Fab, V domains shown)
VH: QVQLVESGGGLVQPGGSLRLSCAASGFTFSSYGMSWVRQAPGKGLEWVSGIRAKQSGYATDYAAPVKGRFTISRDNSKNTLYLQMNSLRAEDTAVYYCARGLGDYGHHHGLSGIFDYWGQGTLVTVSS
VL: DIQMTQSPSSLSASVGDRVTITCRASQGISSNLNWYQQKPGKAPKLLIYAASNLQSGPSRFSGSGSGTDFTLTISSLQPEDFAVYYCQQYSDQSYTFGQGTKVEIKR
As to B11, the “IC50, XTT-proliferation assay on HUVEC” value with human α5β1 integrin [3] was 0.09 µg/ml and 1.8 nM. The binding result in test [4] is recorded as “no binding”.

B12: MOR04977 Fab (Fab, V domains shown)
VH: QVQLVESGGGLVQPGGSLRLSCAASGFTFSSYGMSWVRQAPGKGLEWVSFIEPKWRGGATHYAASVKGRFTISRDNSKNTLYLQMNSLRAEDTAVYYCARGLGDYGHHHGLSGIFDYWGQGTLVTVSS
VL: DIQMTQSPSSLSASVGDRVTITCRASQGISSNLNWYQQKPGKAPKLLIYAASNLQSGPSRFSGSGSGTDFTLTISSLQPEDFATYYCQQYSSNPQTFGQGTKVEIKR
Turning to B12, the “IC50, XTT-proliferation assay on HUVEC” value in the test with human α5β1 integrin [3] is 0.09 µg/ml and 1.9 nM. Also, the binding result in test [4] was “no binding”.

B13: MOR04975 IgG1 (antibody, V domains shown)
VH: QVQLVESGGGLVQPGGSLRLSCAASGFTFSSYGMSWVRQAPGKGLEWVSGIRAKQSGYATDYAAPVKGRFTISRDNSKNTLYLQMNSLRAEDTAVYYCARGLGDYGHHHGLSGIFDYWGQGTLVTVSS
VL: DIQMTQSPSSLSASVGDRVTITCRASQGISSNLNWYQQKPGKAPKLLIYAASNLQSGPSRFSGSGSGTDFTLTISSLQPEDFATYYCQQYEFGIQTFGQGTKVEIKR
Turning to B13, the “EC50, inhibition of HUVEC adhesion” value with human α5β1 integrin [7] was 0.33 µg/ml and 2 nM. Also, in test [6], the binding result was “no binding”.

B14: MOR04977 IgG1 (antibody, V domains shown)
VH: QVQLVESGGGLVQPGGSLRLSCAASGFTFSSYGMSWVRQAPGKGLEWVSFIEPKWRGGATHYAASVKGRFTISRDNSKNTLYLQMNSLRAEDTAVYYCARGLGDYGHHHGLSGIFDYWGQGTLVTVSS
VL: DIQMTQSPSSLSASVGDRVTITCRASQGISSNLNWYQQKPGKAPKLLIYAASNLQSGPSRFSGSGSGTDFTLTISSLQPEDFATYYCQQYSSNPQTFGQGTKVEIKR
Consider B14, for which the “EC50, inhibition of HUVEC adhesion” value with human α5β1 integrin [7] is 0.4 µg/ml and 2.6 nM. For the same molecule, the binding result in test [6] is reported as “no binding”.

B15: MOR04975 Fab (Fab, V domains shown)
VH: QVQLVESGGGLVQPGGSLRLSCAASGFTFSSYGMSWVRQAPGKGLEWVSGIRAKQSGYATDYAAPVKGRFTISRDNSKNTLYLQMNSLRAEDTAVYYCARGLGDYGHHHGLSGIFDYWGQGTLVTVSS
VL: DIQMTQSPSSLSASVGDRVTITCRASQGISSNLNWYQQKPGKAPKLLIYAASNLQSGPSRFSGSGSGTDFTLTISSLQPEDFATYYCQQYEFGIQTFGQGTKVEIKR
notes: also called MQR04975
As to B15, the “IC50, XTT-proliferation assay on HUVEC” value with human α5β1 integrin [3] is 0.09 µg/ml and 1.8 nM. In test [4], the binding result is reported as “no binding”.

The record behind these values is US20090081207A1 (published 2009).
